Residue numbers refer to the chain shown, from its start. Names and notes keep the numbering of the source. Values belong to the molecule of their own block, whether it stands above or below them.
Tests used:
[1] = target: T1, MBP-TtProDH EE (Thermus thermophilus, UniProt Q72IB8, F10E/L12E, form not given); experiment: residual proline:DCPIP activity after incubation; flavin absorption spectra; assay type: biochemical; settings: covalent; suicide inhibitor, flavin N(5)-Lys99 adduct; 40 µM enzyme, pH 7.4, 25 °C
T1 construct: gene TT_C1214; full-length, Phe10 and Leu12 replaced by Glu; N-terminal MBP tag kept; E. coli TOP10; tetramer; FAD

[2] = target: T2, MBP-TtProDH ΔAB (Thermus thermophilus, UniProt Q72IB8); experiment: as above; assay type: biochemical; settings: covalent; suicide inhibitor, flavin N(5)-Lys99 adduct; 40 µM enzyme, pH 7.4, 25 °C
T2 construct: gene TT_C1214; lacks N-terminal helices αA and αB; start 29 (KGLVRRYVAG...) derived from printed primer and V32/Y35/V36 numbering; N-terminal MBP tag kept; E. coli TOP10; tetramer; FAD

[3] = target: T3, MBP-TtProDH ΔA (Thermus thermophilus, UniProt Q72IB8); experiment: as above; assay type: biochemical; settings: covalent; suicide inhibitor, flavin N(5)-Lys99 adduct; 40 µM enzyme, pH 7.4, 25 °C
T3 construct: gene TT_C1214; lacks N-terminal helix αA; start 19 (QVERLIKHRAKG...) derived from printed primer; N-terminal MBP tag kept; E. coli TOP10; tetramer; FAD

[4] = target: T4, MBP-TtProDH ΔAB (Thermus thermophilus, UniProt Q72IB8, V36D, form not given)
T4 construct: gene TT_C1214

[5] = target: T5, MBP-TtProDH ΔAB (Thermus thermophilus, UniProt Q72IB8, V32D, form not given)
T5 construct: gene TT_C1214

[6] = target: the molecule itself; experiment: SEC; 20 µM EE and 20 µM ΔABC mixed in 50 mM sodium phosphate pH 7.4, incubated at room temperature overnight, then Superdex 200 gel filtration; SDS-PAGE of the fractions
[7] = target: the molecule itself; experiment: SEC; analytical gel filtration on Superdex 200 of each MBP-fused variant alone, as described in ref. 19
[8] = target: the molecule itself; experiment: native MS; nanoflow ESI-MS of the native MBP-fused variants; source backing pressure 7.8 mbar, cone voltage 100-150 V

T5 sequence (Q72IB8 29-307 V32D, form open): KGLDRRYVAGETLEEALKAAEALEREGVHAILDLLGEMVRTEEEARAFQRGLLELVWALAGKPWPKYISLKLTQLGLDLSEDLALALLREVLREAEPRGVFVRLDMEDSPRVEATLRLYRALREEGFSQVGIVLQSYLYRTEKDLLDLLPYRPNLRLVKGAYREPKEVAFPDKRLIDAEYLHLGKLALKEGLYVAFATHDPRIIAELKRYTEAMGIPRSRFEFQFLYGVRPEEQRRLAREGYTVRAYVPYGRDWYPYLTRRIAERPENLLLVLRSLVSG
T4 sequence (Q72IB8 29-307 V36D, form open): as the sequence (Q72IB8 29-307 V32D, form open) above, with D4V, V8D counted along it

- % residual activity after 90 min at 2.5 mM [4]: 63%
- % residual activity after 90 min at 2.5 mM [5]: 30%
Molecule: C#CCNCC(=O)O [N-propargylglycine]
- % residual activity after 90 min at 2.5 mM [1]: ~ 13%
- % residual activity after 90 min at 2.5 mM [2]: For ΔA and ΔAB the activity loss is even more pronounced
- % residual activity after 90 min at 2.5 mM [3]: For ΔA and ΔAB the activity loss is even more pronounced

B1: MBP-TtProDH variant EE (MBP-TtProDH with Phe10 and Leu12 replaced by Glu) (enzyme, Thermus thermophilus)
chain: MNLDLAYRSEVEGVAGHPQVERLIKHRAKGLVRRYVAGETLEEALKAAEALEREGVHAILDLLGEMVRTEEEARAFQRGLLELVWALAGKPWPKYISLKLTQLGLDLSEDLALALLREVLREAEPRGVFVRLDMEDSPRVEATLRLYRALREEGFSQVGIVLQSYLYRTEKDLLDLLPYRPNLRLVKGAYREPKEVAFPDKRLIDAEYLHLGKLALKEGLYVAFATHDPRIIAELKRYTEAMGIPRSRFEFQFLYGVRPEEQRRLAREGYTVRAYVPYGRDWYPYLTRRIAERPENLLLVLRSLVSGLE
notes: Proline dehydrogenase (TtProDH), Thermus thermophilus, from its start to residue 287; C-terminal tail of TtProDH (part of helix α8), residues 288-309 as printed; The last residues of the printed tail (LE) may stem from the construct and not from the natural protein (my surmise); also called MBP-TtProDH EE; not shown: MBP, N-terminal, kept
- stoichiometry N [6]: 4

B2: MBP-TtProDH ΔAB (MBP-TtProDH lacking helices αA and αB) (domain or fragment, Thermus thermophilus)
chain: KGLVRRYVAGETLEEALKAAEALEREGVHAILDLLGEMVRTEEEARAFQRGLLELVWALAGKPWPKYISLKLTQLGLDLSEDLALALLREVLREAEPRGVFVRLDMEDSPRVEATLRLYRALREEGFSQVGIVLQSYLYRTEKDLLDLLPYRPNLRLVKGAYREPKEVAFPDKRLIDAEYLHLGKLALKEGLYVAFATHDPRIIAELKRYTEAMGIPRSRFEFQFLYGVRPEEQRRLAREGYTVRAYVPYGRDWYPYLTRRIAERPENLLLVLRSLVSGLE
notes: Proline dehydrogenase (TtProDH), Thermus thermophilus, lacking helices αA and αB; C-terminal tail of TtProDH (part of helix α8), residues 288-309 as printed; not shown: MBP, N-terminal, kept
- stoichiometry N [7]: 4
- stoichiometry N [8]: 2

B3: MBP-TtProDH ΔAB V36D (domain or fragment, Thermus thermophilus)
chain: B2 chain with V8D
notes: Proline dehydrogenase (TtProDH), Thermus thermophilus, lacking helices αA and αB, with V36D in helix αC; C-terminal tail of TtProDH (part of helix α8), residues 288-309 as printed; lacking in a part of the preparation; The preparation is a mixture: partially intact and partially cleaved before R288 (two subunit masses, 73.0 and 75.5 kDa); Mainly dimers by SEC, tetramers and dimers by …
- stoichiometry N [7]: 2
- stoichiometry N [8]: 4

B4: MBP-TtProDH ΔAB V32D (domain or fragment, Thermus thermophilus)
chain: B2 chain with V4D
notes: Proline dehydrogenase (TtProDH), Thermus thermophilus, lacking helices αA and αB, with V32D in helix αC; C-terminal tail of TtProDH (part of helix α8), residues 288-309 as printed; lacking in a part of the preparation; The preparation is a mixture: partially intact and partially cleaved before R288 (two subunit masses, 73.0 and 75.5 kDa); Mainly dimers by SEC, tetramers and dimers by …
- stoichiometry N [7]: 2
- stoichiometry N [8]: 4

B5: MBP-TtProDH ΔAB Y35F (domain or fragment, Thermus thermophilus)
chain: B2 chain with Y7F
notes: Proline dehydrogenase (TtProDH), Thermus thermophilus, lacking helices αA and αB, with Y35F in helix αC; C-terminal tail of TtProDH (part of helix α8), residues 288-309 as printed; Identical subunits by denaturing MS; not shown: MBP, N-terminal, kept
- stoichiometry N [7]: 4

B6: MBP-TtProDH ΔA (MBP-TtProDH lacking helix αA) (domain or fragment, Thermus thermophilus)
chain: QVERLIKHRAKGLVRRYVAGETLEEALKAAEALEREGVHAILDLLGEMVRTEEEARAFQRGLLELVWALAGKPWPKYISLKLTQLGLDLSEDLALALLREVLREAEPRGVFVRLDMEDSPRVEATLRLYRALREEGFSQVGIVLQSYLYRTEKDLLDLLPYRPNLRLVKGAYREPKEVAFPDKRLIDAEYLHLGKLALKEGLYVAFATHDPRIIAELKRYTEAMGIPRSRFEFQFLYGVRPEEQRRLAREGYTVRAYVPYGRDWYPYLTRRIAERPENLLLVLRSLVSGLE
notes: Proline dehydrogenase (TtProDH), Thermus thermophilus, lacking helix αA; C-terminal tail of TtProDH (part of helix α8), residues 288-309 as printed; Cloned with EcoRI and HindIII into pBAD-MBP; not shown: MBP, N-terminal, kept
- stoichiometry N [7]: 4
- stoichiometry N [8]: 2

B7: MBP-TtProDH ΔABC (MBP-TtProDH lacking helices αA, αB and αC) (domain or fragment, Thermus thermophilus, UniProt Q72IB8 38-287, looked up)
chain: GETLEEALKAAEALEREGVHAILDLLGEMVRTEEEARAFQRGLLELVWALAGKPWPKYISLKLTQLGLDLSEDLALALLREVLREAEPRGVFVRLDMEDSPRVEATLRLYRALREEGFSQVGIVLQSYLYRTEKDLLDLLPYRPNLRLVKGAYREPKEVAFPDKRLIDAEYLHLGKLALKEGLYVAFATHDPRIIAELKRYTEAMGIPRSRFEFQFLYGVRPEEQRRLAREGYTVRAYVPYGRDWYPYLT
notes: Proline dehydrogenase (TtProDH), Thermus thermophilus, lacking the whole N-terminal arm; PDB 5M42)'; the construct encodes up to residue 309, but the observed species is C-terminally truncated, cleaved before Arg288 (residues 288-309 removed); The difference of the predicted masses of ΔAB and ΔABC (75.5 against 74.4 kDa) fits a start at G38; not shown: MBP, N-terminal, kept
- stoichiometry N [7]: 2
- stoichiometry N [8]: 4
